The results in this text go back to patent publication US20150132307A1.

Substitutions are numbered along the chain they refer to.

First the molecules themselves.
B1: <TWEAK> 305chi (antibody, human IgG1, kappa, V domains shown)
VH: QEQLVESGGGLVQPGGSLTLSCKASGFDFSTYYMSWVRQAPGKGLEWIGTVYVRQGTTYYASWLNGRFTISSDNAQNTVDLKMNSLTAADTATYFCAKGGYNYDDAFVIWGPGTLVTVSF
VL: AIEMTQTPFSVSAAVGGTVTINCQASQNIYSNLAWYQQKPGQPPKLLMYTASYLASGVPSRFKGSGSRTEYTLTISGVQCADAATYYCQTAYYNSRPDTVAFGGGTEVVVKR
B2: Humanized <TWEAK> 305- antibody 27 (antibody, V domains shown)
VH: QVQLVQSGAEVKKPGSSVKVSCKASGFDFSTYYMSWVRQAPGQGLEWMGTVYVRQGTTYYASWLNGRVTITADESTSTAYMELSSLRSEDTAVYYCARGGYNYDDAFVIWGQGTLVTVSS
VL: DIQMTQSPSSVSASVGDRVTITCQASQNIYSNLAWYQQKPGKAPKLLIYTASYLASGVPSRFSGSGSGTDYTLTISSLQPEDFATYYCQTAYYNSRPDTVAFGGGTKVEIK
B3: Humanized <TWEAK> 305- antibody 32 (antibody, V domains shown)
VH: EVQLLESGGGLVQPGGSLRLSCAASGFDFSTYYMSWVRQAPGKGLEWVSTVYVRQGTTYYASWLNGRFTISRDNSKNTLDLQMNSLRAEDTAVYYCAKGGYNYDDAFVIWGQGTLVTVSS
VL: B2 VL with S10T, V11L, D70E, Y71F, E81D
B4: Humanized <TWEAK> 305- antibody 33 (antibody, V domains shown)
VH: B2 VH
VL: B2 VL with D1A, Q3R, V11F, V15T, S77C, P80S
B5: Humanized <TWEAK> 305- antibody 28 (antibody, V domains shown)
VH: B3 VH with R19T, D80Y
VL: B2 VL
B6: Humanized <TWEAK> 305- antibody 30 (antibody, V domains shown)
VH: B3 VH with D80Y, R87T
VL: B2 VL with Y71F
B7: Humanized <TWEAK> 305- antibody 29 (antibody, V domains shown)
VH: B3 VH
VL: B2 VL
B8: Humanized <TWEAK> 305- antibody 34 (antibody, V domains shown)
VH: B3 VH with D80Y
VL: B2 VL with D1A, Q3R, V11F, V15T, S77C, P80S
B9: Humanized <TWEAK> 305- antibody 31 (antibody, V domains shown)
VH: B3 VH with R19T, D80Y
VL: B2 VL with D1A, Q3R, V11F, V15T, S77C, P80S

In the first assay the target is Biotinylated murine soluble TWEAK (amino acids 81-225 of SEQ ID NO: 69) (murine) (UniProt O54907). Put plainly: SPR (Biacore 2000), biotinylated soluble TWEAK on streptavidin chip, antibody 100 nM as analyte, 25 C. For orientation: In SPR one partner is held on a chip, and binding of the other changes the refractive index at the surface.
Regarding B1, the t/2 diss [min] 25° C. was found to be 39 min.

Another assay has the same target. Put plainly: SPR (Biacore), further experiment, biotinylated soluble TWEAK on streptavidin chip, 25 C.
For the molecule B1, the t/2 diss [min] 25° C. is 41 min.

Another assay has the same target. Put plainly: SPR (Biacore), biotinylated soluble TWEAK on streptavidin chip, 25 C.
The molecule B2 returned a Biacore t/2 diss. [min] 25° C. murine of 19 min.

For the molecule B3, the Biacore t/2 diss. [min] 25° C. murine turned out to be 17 min.

As to B4, the Biacore t/2 diss. [min] 25° C. murine came out at 19 min.

As to B5, the Biacore t/2 diss. [min] 25° C. murine came out at 19 min.

Molecule B6 had a Biacore t/2 diss. [min] 25° C. murine of 17 min.

B7: the Biacore t/2 diss. [min] 25° C. murine was 22 min.

Molecule B8 showed a Biacore t/2 diss. [min] 25° C. murine of 22 min.

As to B9, the Biacore t/2 diss. [min] 25° C. murine came out at 19 min.

The next assay has the same target. Put plainly: SPR (Biacore), biotinylated soluble TWEAK on streptavidin chip, 37 C.
Take B2: the Biacore t/2 diss. [min] 37° C. murine is 19 min.

B3 had a Biacore t/2 diss. [min] 37° C. murine of 20 min.

With B4, the Biacore t/2 diss. [min] 37° C. murine came out at 15 min.

In turn, B5 gave a Biacore t/2 diss. [min] 37° C. murine of 17 min.

Regarding B6, the Biacore t/2 diss. [min] 37° C. murine amounted to 15 min.

The molecule B7 showed a Biacore t/2 diss. [min] 37° C. murine of 21 min.

B8 registered a Biacore t/2 diss. [min] 37° C. murine of 20 min.

Molecule B9 gave a Biacore t/2 diss. [min] 37° C. murine of 19 min.
